Measured values reported in US7741096B2, “Crystal structure of hepatocyte growth factor activator complexed with Kunitz domain inhibitor” (Genentech, Inc., priority 2004, dated 2010).

Experiments:
Thrombin = molecular target: T1, Thrombin (Homo sapiens, UniProt P00734); assay: Chromogenic substrate enzyme inhibition assay, thrombin; type: biochemical; settings: substrate S2366, read-out: KD1 IC50
T1 construct: purchased Haematologic Technologies
From the text: (§1) The following synthetic substrates were used to measure enzyme activities: Spectrozyme® fvIIa (American Diagnostica, Stamford, Conn.) for HGFA and ChromozymtPA (Roche Molecular Biochemicals, Indianapolis, Ind.) for tissue factor/FVIIa. The following substrates were from Diapharma, Westchester, Ohio: S2222 for factor Xa, S2302 for plasma kallikrein, S2366 for activated protein C, thrombin, hepsin and plasmin, S2444 for uPA, S2288 for factor XIa, FXIIa and tPA, S2765 for matriptase complement factor C1s, chymotrypsin and trypsin. Except for bovine trypsin (Worthington, Lakewood, N.J.), all enzymes used were of human origin. Factor Xa, factor XIa, thrombin, activated protein C and plasmin were from Haematologic Technologies (Essex Junction, Vt.). […]
(§2) The inhibitory activity of KD1 towards a panel of trypsin-like serine proteases was examined using assay conditions as described for measuring the inhibitory activity of HAI-1B ectodomain. […] After 20 min. incubation at room temperature, the appropriate substrate was added and the linear rates of substrate hydrolysis were determined by measuring the change in absorbance at 405 nm on a kinetic microplate reader (Molecular Devices, Sunnyvale, Calif.). […]

uPA = molecular target: T2, uPA (Homo sapiens, UniProt P00749); assay: Chromogenic substrate enzyme inhibition assay, uPA; type: biochemical; settings: substrate S2444, read-out: KD1 IC50
T2 construct: purchased Chemicon
From the text: as §1, §2

KD1: The first Kunitz domain of human HAI-1B, amino acids 246-303 (SEQ ID NO: 4), with polyhistidine leader, expressed in E. coli
IC50 (Thrombin): > 1000 nM
IC50 (uPA): > 1000 nM
